From PMC3950343 (Genes & Development, 2014)

Target: the molecule itself
Assay: SEC-MALS

B1: Rad50-HK^WT (mouse Rad50 hook domain fragment, amino acids 591-773) (domain or fragment, UniProt P70388 591-773, looked up)
chain: RDRLAKLNKELASAEQNKNHINNELKKKEEQLSSYEDKLFDVCGSQDLESDLGRLKEEIEKSSKQRAMLAGATAVYSQFITQLTDENQSCCPVCQRVFQTEAELQEVISDLQSKLRLAPDKLKSTESELKKKERRRDEMLGLVPVRQSIIDLKEKEIPELRNRLQSVNRDIQRLKNDIEEQET
- stoichiometry N: 2
